Assay [1] deals with human BLyS 60-mer (human, UniProt Q9Y275). The experiment in a line: SPR.
The target in assay [2] is T1, cyno FcRn (cynomolgus monkey).
T1 chain 1: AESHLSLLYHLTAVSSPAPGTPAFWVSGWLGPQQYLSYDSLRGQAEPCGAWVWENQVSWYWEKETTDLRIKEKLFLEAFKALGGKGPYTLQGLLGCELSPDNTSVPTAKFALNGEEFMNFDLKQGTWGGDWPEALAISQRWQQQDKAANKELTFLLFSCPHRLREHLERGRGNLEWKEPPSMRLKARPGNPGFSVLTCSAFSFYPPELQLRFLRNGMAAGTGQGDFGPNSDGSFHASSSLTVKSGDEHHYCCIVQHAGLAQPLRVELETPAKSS
T1 chain 2: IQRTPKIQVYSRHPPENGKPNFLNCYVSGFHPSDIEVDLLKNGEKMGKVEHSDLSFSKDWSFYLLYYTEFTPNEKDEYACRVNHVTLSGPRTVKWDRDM
The experiment in a line: SPR, pH 6.0. Background: SPR reads the build-up and loss of mass on a sensor chip optically.

Assay [3] addresses T2, human BLyS (BAFF) trimer (human, UniProt Q9Y275). The experiment in a line: competition, BAFFR on CHO-K1 cells.
The target in assay [4] is T2, human BLyS (BAFF) trimer. The experiment in a line: competition, BCMA:Fc.
In assay [5] the target is T2, human BLyS (BAFF) trimer. The experiment in a line: competition, BAFF-R:Fc.
In assay [6] the target is T2, human BLyS (BAFF) trimer. The experiment in a line: competition, TACI:Fc.
The target in assay [7] is human FcRn (human, UniProt P55899). The experiment in a line: SPR, pH 6.0.

Our source for the binding result, Kd and IC50 values is patent US20260285996 (published 2026).

A word on the Kd: it is the equilibrium constant for the complex coming apart. A lower Kd goes with tighter binding. A word on the IC50: it is the point on the concentration scale where inhibition reaches its midpoint. A higher IC50 goes with weaker potency in that assay.

B1: Ab363A (antibody, V domains shown)
VH: QVQLQQSGAEVKKPGSSVRVSCKASGGTFNNDAINWVRQAPGQGLEWMGGIFPMFGTAKYSQNFQGRVAITADESTGTASMELSSLRSEDTAVYYCARSRDPLLYPHHALSPWGRGTMVTVSS
VL: SSELTQDPAVSVALGQTVRVTCQGDSLRYYYASWYQQKPGQAPVLVIYGKNNRPSGIPDRFSGSSSGNTASLTITGAQAEDEADYYCSSRDSSGNNWVFGGGTELTVL
In the case of B1, in assay [1], the binding result was “no binding”.

B2: Belimumab (antibody)
chain 1: not shown
chain 2: SSELTQDPAVSVALGQTVRVTCQGDSLRSYYASWYQQKPGQAPVLVIYGKNNRPSGIPDRFSGSSSGNTASLTITGAQAEDEADYYCSSRDSSGNHWVFGGGTELTVLGQPKAAPSVTLFPPSSEELQANKATLVCLISDFYPGAVTVAWKADSSPVKAGVETTTPSKQSNNKYAASSYLSLTPEQWKSHRSYSCQVTHEGSTVEKTVAPTECS
In the case of B2, the Kd in assay [2] is 760 nM; in assay [7], 753 nM. Further, the IC50 worked out at 0.0302 nM in assay [3], 0.126 nM in assay [4], 0.1 nM in assay [5] and 0.2 nM in assay [6]. Also, the binding result in assay [1] was “no binding”.
